The results in this text go back to patent US12522647B2, “Beta-arrestin mutants” (PAUL SCHERRER INSTITUT, priority 2019, dated 2026).

In this test the target is T1, β2-adrenergic receptor (β2AR, B2AR) (Homo sapiens, UniProt P07550).
T1 construct: expressed in transfected cells; host or cells: HEK293 cells (transient co-transfection, Lipofectamine 2000)
Put plainly: BRET arrestin recruitment assay: isoproterenol-induced recruitment of GFP-arrestin-3 WT or mutants to RLuc8-β2AR. It is filed as cell-based. As to conditions: for Potency (pEC50 ± Std. error): isoproterenol concentration giving half-maximal arrestin recruitment to β2AR, BRET AUC over 19.5 min, isoproterenol 10 pM to 10 μM; for Recruitment to B2AR compared to wild-type arrestin-3 (in words): isoproterenol concentration-response curves, FIG. 1; for Efficacy (Emax ± Std. error) in %, normalized to WT: maximal isoproterenol-induced recruitment to β2AR, WT arrestin-3 at 10 μM isoproterenol set to 100%. The protocol:
[…] were seeded onto poly-L-lysine coated, white, 96-well plates at a density of ˜25,000 cells per well. […] The day following transfection, cell culture medium was exchanged with fresh medium. Another 24 h later cell culture medium was replaced with assay buffer (HBSS+20 mM HEPES and pH 7.4) and cells were treated with 5 μM cell-permeable substrate Coelenterazine 400A (Cayman Chemical), which is catalysed by the BRET donor RLuc8, resulting in the emission of light (λmax=410 nm). BRET measurement was performed in a plate reader PheraStar FSX (BMG Biotech) with the optical module (BRET2 plus, 515-30, 410-80). At t=4.5 min, isoproterenol (Tocris Bioscience) was added at increasing concentrations to the cells (from 10 pM to 10 μM). BRET ratio was determined by calculating the ratio of the light intensity emitted by the GFP (515 nm) over the light intensity emitted by the Rluc8/Coelenterazine 400A (410 nm). […] The coefficient of determination R^2 can range between 0 and 1 and represents the quality of the fitting between the experimental values (marks, FIG. 1) and the non-linear regression analysis (curves, FIG. 1). Experiments were performed in technical duplicates in two independent experiments.
An arrestin recruitment assay based on Bioluminescence Resonance Energy Transfer (BRET) was performed to compare the recruitment efficiencies of arrestin-3 double and triple mutants with wild-type arrestin-3 towards B2AR.
The recruitment responses can be defined by two pharmacological parameters: potency and efficacy. In general, efficacy (Emax) is a measure of the maximum effect that is expected from a compound/drug. […] Potency is often given as the EC50 value, which defines the amount of compound required to produce 50% of that compound's maximal effect. For simpler illustration, the pEC50 value, which is the negative logarithm of the EC50 in molar concentrations, is shown.
The potency (pEC50) represents the molar concentration of isoproterenol necessary to obtain half of the total recruitment of arrestin-3 or efficiency (Emax) for each arrestin.
For orientation: In BRET a luciferase serves as donor, and the signal depends on an acceptor being close.

As for “Double mutant A: Arrestin-3 double mutant containing T299A and I386A when compared to human wt arrestin-3”, the “Potency (pEC50 ± Std. error)” value turned out to be 7.1±0.03; the “Recruitment to B2AR compared to wild-type arrestin-3 (in words)” value is given as “increased recruitment efficacy”; the “Efficacy (Emax ± Std. error) in %, normalized to WT” value was 131.5±1.82%.

B1: Triple mutant B: Arrestin-3 triple mutant containing T299A, I386A and R166A when compared to human wt arrestin-3 (protein)
chain: MGEKPGTRVFKKSSPNCKLTVYLGKRDFVDHLDKVDPVDGVVLVDPDYLKDRKVFVTLTCAFRYGREDLDVLGLSFRKDLFIATYQAFPPVPNPPRPPTRLQDRLLRKLGQHAHPFFFTIPQNLPCSVTLQPGPEDTGKACGVDFEIRAFCAKSLEEKSHKRNSVALVIRKVQFAPEKPGPQPSAETTRHFLMSDRSLHLEASLDKELYYHGEPLNVNVHVTNNSTKTVKKIKVSVRQYADICLFSTAQYKCPVAQLEQDDQVSPSSTFCKVYTITPLLSDNREKRGLALDGKLKHEDANLASSTIVKEGANKEVLGILVSYRVKVKLVVSRGGDVSVELPFVLMHPKPHDHIPLPRPQSAAPETDVPVDTNLIEFDTNYATDDDAVFEDFARLRLKGMKDDDYDDQLC
modifications: Arrestin-3 triple mutant B containing T299A, I386A and R166A
For B1, the “Potency (pEC50 ± Std. error)” value was determined as 7.3±0.06; the “Recruitment to B2AR compared to wild-type arrestin-3 (in words)” value was “increased recruitment efficacy”; the “Efficacy (Emax ± Std. error) in %, normalized to WT” value amounted to 103.0 ± 2.53%. In addition, where the note is “converted from pEC50, isoproterenol-induced recruitment to β2AR, read-out: Potency expressed as isoproterenol concentration”, the EC50 was found to be 50.1 nM.

B2: Triple mutant D: Arrestin-3 triple mutant containing T299A, I386A and R393A when compared to human wt arrestin-3 (protein)
chain: MGEKPGTRVFKKSSPNCKLTVYLGKRDFVDHLDKVDPVDGVVLVDPDYLKDRKVFVTLTCAFRYGREDLDVLGLSFRKDLFIATYQAFPPVPNPPRPPTRLQDRLLRKLGQHAHPFFFTIPQNLPCSVTLQPGPEDTGKACGVDFEIRAFCAKSLEEKSHKRNSVRLVIRKVQFAPEKPGPQPSAETTRHFLMSDRSLHLEASLDKELYYHGEPLNVNVHVTNNSTKTVKKIKVSVRQYADICLFSTAQYKCPVAQLEQDDQVSPSSTFCKVYTITPLLSDNREKRGLALDGKLKHEDANLASSTIVKEGANKEVLGILVSYRVKVKLVVSRGGDVSVELPFVLMHPKPHDHIPLPRPQSAAPETDVPVDTNLIEFDTNYATDDDAVFEDFAALRLKGMKDDDYDDQLC
modifications: Arrestin-3 triple mutant D containing T299A, I386A and R393A
As for B2, the “Potency (pEC50 ± Std. error)” value is on record as 7.2 ± 0.03 and the “Efficacy (Emax ± Std. error) in %, normalized to WT” value turned out to be 89.2 ± 1.23%.

B3: Triple mutant C: Arrestin-3 triple mutant containing T299A, I386A and D298A when compared to human wt arrestin-3 (protein)
chain: MGEKPGTRVFKKSSPNCKLTVYLGKRDFVDHLDKVDPVDGVVLVDPDYLKDRKVFVTLTCAFRYGREDLDVLGLSFRKDLFIATYQAFPPVPNPPRPPTRLQDRLLRKLGQHAHPFFFTIPQNLPCSVTLQPGPEDTGKACGVDFEIRAFCAKSLEEKSHKRNSVRLVIRKVQFAPEKPGPQPSAETTRHFLMSDRSLHLEASLDKELYYHGEPLNVNVHVTNNSTKTVKKIKVSVRQYADICLFSTAQYKCPVAQLEQDDQVSPSSTFCKVYTITPLLSDNREKRGLALDGKLKHEAANLASSTIVKEGANKEVLGILVSYRVKVKLVVSRGGDVSVELPFVLMHPKPHDHIPLPRPQSAAPETDVPVDTNLIEFDTNYATDDDAVFEDFARLRLKGMKDDDYDDQLC
modifications: Arrestin-3 triple mutant C containing T299A, I386A and D298A
With B3, the “Potency (pEC50 ± Std. error)” value is 7.2 ± 0.04 and the “Efficacy (Emax ± Std. error) in %, normalized to WT” value came to 108.9 ± 1.84%.
